Results on 1 substance are retold here after PMC6346213.

Several values for one entry are separate records, joined by “and”; a condition that tells them apart may be missing. Equal entries are not always repeated.

The target of this assay is COP9 signalosome (CSN) holo-complex (human (endogenous in HEK293)) (UniProt Q13098). Kind of assay: SEC; co-fractionation of native HEK293 lysate (freeze-thaw, 0.5% NP-40); Yarra-SEC-4000, 50 mM HEPES pH 7.5, 150 mM NaCl, 4°C; 81 fractions quantified by SWATH-MS; co-elution of protein profiles scored with CCprofiler (5% FDR) and by manual inspection. On the technique in general: In gel filtration, larger molecules generally elute earlier.
Sequence of UniProt Q13098 (Q13098 whole entry, looked up, one chain of several): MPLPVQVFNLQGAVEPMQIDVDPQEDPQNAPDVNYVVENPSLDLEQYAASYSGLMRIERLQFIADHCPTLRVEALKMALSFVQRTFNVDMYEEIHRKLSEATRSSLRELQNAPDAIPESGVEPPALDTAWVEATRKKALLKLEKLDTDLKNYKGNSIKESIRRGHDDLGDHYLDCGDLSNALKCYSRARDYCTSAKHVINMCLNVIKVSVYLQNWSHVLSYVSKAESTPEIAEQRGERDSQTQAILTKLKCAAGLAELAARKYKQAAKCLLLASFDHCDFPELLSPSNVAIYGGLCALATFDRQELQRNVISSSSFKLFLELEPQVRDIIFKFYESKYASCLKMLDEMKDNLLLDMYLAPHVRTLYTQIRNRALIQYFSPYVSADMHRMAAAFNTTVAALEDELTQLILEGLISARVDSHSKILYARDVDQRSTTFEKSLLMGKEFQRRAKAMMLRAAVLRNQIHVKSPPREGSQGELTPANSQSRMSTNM

Take “E3-CRL substrate of the COP9 signalosome (components CUL4A and DDB2) (from UniProt Q13619 1-759; Q92466 1-427) (complex)”: the substrate-bound fraction of CSN holo-complex was 25% and 22%.
